These results are taken from paper PMC12567083, “N-terminal oligomerization drives HDAC4 nuclear condensation and neurodevelopmental dysfunction in Drosophila” (Open Biology, 2025).

B1: HDAC4^N-WT (N-terminal fragment of Drosophila HDAC4, Pro37 to Gln143) (domain or fragment, UniProt Q9VYF3 37-143, looked up)
chain: PHPAVDIDQQIMELKKSQELQKQRLINSFQEQSKQMELEHKLQLEHKYQFAVNSHGAFQELRNESMVTAAAAAVAQEQHRQQLHQQQQQHQQQQQQQQHQQQQQQQQ
notes: Drosophila HDAC4 (DmHDAC4), translation of nucleotides 461-4216 of NCBI NM_132640; residues Pro37-Gln143, the region that corresponds to Ala62-Gln153 of human HDAC4; codon optimised for E. coli; Cloned in pET-15B in frame with the N-terminal 6x His tag; Which UniProt isoform equals the translation of NM_132640 is not known to me; also called wild-type N-terminal HDAC4
B2: HDAC4^N-F65A (domain or fragment, Drosophila, UniProt Q9VYF3 37-143, looked up)
chain: PHPAVDIDQQIMELKKSQELQKQRLINSAQEQSKQMELEHKLQLEHKYQFAVNSHGAFQELRNESMVTAAAAAVAQEQHRQQLHQQQQQHQQQQQQQQHQQQQQQQQ
notes: Drosophila HDAC4 (DmHDAC4), translation of nucleotides 461-4216 of NCBI NM_132640; residues Pro37-Gln143 with Phe65Ala; Made by mutagenesis of HDAC4^N-WT in pET-15B
B3: HDAC4^N-S69F (domain or fragment, Drosophila, UniProt Q9VYF3 37-143, looked up)
chain: PHPAVDIDQQIMELKKSQELQKQRLINSFQEQFKQMELEHKLQLEHKYQFAVNSHGAFQELRNESMVTAAAAAVAQEQHRQQLHQQQQQHQQQQQQQQHQQQQQQQQ
notes: Drosophila HDAC4 (DmHDAC4), translation of nucleotides 461-4216 of NCBI NM_132640; residues Pro37-Gln143 with Ser69Phe; Made by mutagenesis of HDAC4^N-WT in pET-15B

This data set concerns the molecule itself. As to the kind of experiment: cross-linking; 0.5 mg/ml HDAC4^N in SEC buffer (30 mM HEPES pH 7.6, 150 mM NaCl) with 0.2 mM or 2.0 mM disuccinimidyl suberate (DSS), 30 min at room temperature, quenched with Tris; SDS-PAGE and colloidal Coomassie.
As to B1, the binding result is given as “binds”. For B2 the value was “binds”; for B3, “binds”.
